Test system: MS2 coat protein
Assay: apparent KD of MS2 coat protein; designed switch direction (-1 OFF switch, 1 ON switch): -1; higher = weaker reporter binding
Method in brief: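 For each design, the apparent KD is the median over clusters of curves fitted to normalised cluster fluorescence. Clusters held RNA switches with common flanks, transcribed on Illumina chips by stalled E. coli RNA polymerase. These were titrated with SNAP-549-labelled MS2 coat protein, doubling from 0.7 or 1.5 nM to 3 µM, without input, with 200 uM small-molecule ligand, or with an oligonucleotide input.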

[1] = input ligand: microRNA oligo, concentration not stated
[2] = Eterna round: R95, input ligand: FMN 200 uM
[3] = Eterna round: R95, input ligand: microRNA oligo, concentration not stated
[4] = Eterna round: R95, input ligand: none

UGAUCUAGCGGAGGAUAUACAUGAGGAUCACCCAUGUAAUGGUGACGUGCGUACAUGUCACCUGUGUAGAAGGCCGCUAGAUCU [JL ENG2 3.57] (Eterna round: R96, puzzle: Exclusion NG 2)
apparent KD of MS2 coat protein (input ligand: FMN 200 uM): 11.3 nM
apparent KD of MS2 coat protein [1]: 15.6 nM
apparent KD of MS2 coat protein (input ligand: none): 16 nM

GUUAUGCGGCAGGAUAUCCAUCCGCGGUAUGAUGGAGAAGGGCCGACAUGAGGAUCACCCAUGUGCGUCCUAGG [jl-ex6-4.49 ViennaUCT mod] (Eterna round: R97, puzzle: Exclusion 6)
apparent KD of MS2 coat protein (input ligand: FMN 200 uM): 155 nM
apparent KD of MS2 coat protein (input ligand: none): 53 nM

AACAGCAGCUUUUUGCGCAACAUGAGGAUCACCCAUGUUGCAUGAGCAGCGUCGGGAGGUACCGGUUUCGUUUUGUC [Eternabot (L1) Solution 45] (Eterna round: R97, puzzle: Sensor, turn-off variant 1)
apparent KD of MS2 coat protein (input ligand: FMN 200 uM): 18.7 nM
apparent KD of MS2 coat protein (input ligand: none): 18.1 nM

UGUACUAACACGAUAGUGUUAGUACAAUAAGCUUGUGUUACAUGAGGAUCACCCAUGUCCUCAUAAGCUCGUCUUAU [Mat - Sensor v3 - Turn-off var 2 - D55] (puzzle: Sensor v3, turn-off variant 2)
apparent KD of MS2 coat protein [2]: 109 nM
apparent KD of MS2 coat protein [3]: 141 nM
apparent KD of MS2 coat protein [4]: 105 nM

AGUCGGUCAGGAUAUGCAAUCGUGGACAUGAGGAUCACCCAUGUAACGUGGGCCUGGUUUGUAGAAGGGACGAGCA [EX5 #87] (Eterna round: R97, puzzle: Exclusion 5)
apparent KD of MS2 coat protein (input ligand: FMN 200 uM): 66 nM
apparent KD of MS2 coat protein (input ligand: none): 61.2 nM

AUUAAUCAUGUAGGAUAUGCGUGGCGAAGCUAUGCAGAAGGACAUGAGGAUCACCCAUGUUCUAGCGUCUGCGUACAGAUGCUA [JL ENG1 1.37] (Eterna round: R96, puzzle: Exclusion NG 1)
apparent KD of MS2 coat protein (input ligand: FMN 200 uM): 349 nM
apparent KD of MS2 coat protein [1]: 29.5 nM
apparent KD of MS2 coat protein (input ligand: none): 37.6 nM

CAGUACUGAGGAUAUACAUGAGGAUCACCCAUGUCAGAGAUACUAGUGAGGUCGAUUAGUAGAAGGCAGUACUG [Mat X3R4 m30] (Eterna round: R97, puzzle: Exclusion 3)
apparent KD of MS2 coat protein (input ligand: FMN 200 uM): 621 nM
apparent KD of MS2 coat protein (input ligand: none): 43.5 nM

CAAACCAGAGGAUAUGCGCAUAGAUCAGACUUUGUUUCUUAACAUGAGGAUCACCCAUGUAGAAGGCUGUAAAC [Ex2 #74] (Eterna round: R97, puzzle: Exclusion 2)
apparent KD of MS2 coat protein (input ligand: FMN 200 uM): 12.3 nM
apparent KD of MS2 coat protein (input ligand: none): 13.3 nM

UCAAGUAUGUAGGAUAUCGAUGUCGAAAGACAUCGAGAAGGACGUACAUGAGGAUCACCCAUGUAACUUGCAUG [Exclusion 6 - B - 10:f] (puzzle: Exclusion 6)
apparent KD of MS2 coat protein [2]: 32.2 nM
apparent KD of MS2 coat protein [3]: 44.6 nM
apparent KD of MS2 coat protein [4]: 42.3 nM

AGGCGGAAAGUAAGGAUAUCUUGACCAAAGGGUUGAGAGAAGGUACAUGAGGAUCACCCAUGUGGUGACCGCCA [Morphing Claw (Vienna)] (Eterna round: R97, puzzle: Brourd's mod of Exclusion 4)
apparent KD of MS2 coat protein (input ligand: FMN 200 uM): 228 nM
apparent KD of MS2 coat protein (input ligand: none): 685 nM

CUGAGGUAGCGGUCCUAUGACAUGAGGAUCACCCAUGUACCUUGCUUCGAGCUAUUUGCUCGUCUUAUGAUUCUCGG [Mat - Sensor v3 - turn-off var 1 - JL Mod - D34] (puzzle: Sensor v3, turn-off variant 1)
apparent KD of MS2 coat protein [2]: 538 nM
apparent KD of MS2 coat protein [3]: 483 nM
apparent KD of MS2 coat protein [4]: 493 nM

CUGAGGUAGCGGUCCUAUGACAUGAGGAUCACCCAUGUACCUUGCUUCGAGCUUUUUGCUCGUCUUAUGAUUCUCGG [JL Atriat mod 5] (puzzle: Sensor v3, turn-off variant 1)
apparent KD of MS2 coat protein [2]: 486 nM
apparent KD of MS2 coat protein [3]: 456 nM
apparent KD of MS2 coat protein [4]: 576 nM

ACUAGAUGAGGAUAUGCAUAUUUUCGUGUUCUUCUAGGUUAACAUGAGGAUCACCCAUGUAGAAGGCGUCUGGA [Exclusion 2 - 21] (puzzle: Exclusion 2)
apparent KD of MS2 coat protein [3]: 20 nM

GUGUACAGAGGAUAUACAUGAGGAUCACCCAUGUGAAUAAGAUAGAAUAAGAUAAAGUGUAGAAGGCUGAGUGU [Excluse me!!! 1 - Jieux - Exclusion 3] (puzzle: Exclusion 3)
apparent KD of MS2 coat protein [2]: 28.8 nM
apparent KD of MS2 coat protein [3]: 35.7 nM
apparent KD of MS2 coat protein [4]: 38.4 nM

Reference: the supplement of paper PMC9170038
